Laboratory results: US20210340231A1 (FAPON BIOTECH, published 2021)

Each binder was assayed against T1, CTNI quality control recombinant protein (PK2-CTNI-1, 170120, produced by the applicant) (human, UniProt P19429 2-210, limits assumed) (assay: AMC sensor kinetics, antibody captured, cTnI analyte).
T1 construct: also called cardiac troponin I
Procedure: Using the AMC sensor, the purified antibody was diluted with PBST to 10 μg/ml, and the CTNI quality control recombinant protein (PK2-CTNI-1, 170120, produced by the applicant) was serially diluted with PBST to 400 nmol/ml, 200 nmol/ml, 100 nmol/ml, 50 nmol/ml, 25 nmol/ml, 12.5 nmol/ml, 6.25 nmol/ml, and 0 nmol/ml.

T1 sequence (P19429 2-210 limits assumed): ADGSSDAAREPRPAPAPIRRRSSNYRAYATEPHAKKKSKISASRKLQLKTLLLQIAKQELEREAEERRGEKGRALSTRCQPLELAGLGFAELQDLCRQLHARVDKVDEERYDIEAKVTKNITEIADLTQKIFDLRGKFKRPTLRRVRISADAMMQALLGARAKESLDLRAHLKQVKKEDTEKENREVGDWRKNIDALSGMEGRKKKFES

Binder | Kd [nM] | koff [s⁻¹] | kon [M⁻¹ s⁻¹]
Mutation 1-1 (antibody, V domains shown, built as for Mutation 1) VH: EVQLQQSGAELVKPGASVKLSCTASGFNLKDYYMHWMKQRTEQGLDWIGRIDPEDAETKYAPEFQGKATITADTSSNTAYLQLSTLTSEDTAVYYCARYYSSYLPFVYWGQGTLVTASA VL: DVVMTQTPLSLSVSLGDQASISCRSSQSILYSNRHTYLHWYLQKPGQSPKLLIFQLSNRFSGVPDRFSGSGSGTDFTLKINRVEAEDLGVYFCSQSTHLPYTFGSGTKLEIKR | 0.865 | 0.000311 | 359000
Mutation 1-2 (antibody, V domains shown, built as for Mutation 1) VH: EVQLQQSGAELVKPGASVKLSCTASGFNIKDYFMHWMKQRTEQGLDWIGRIDPEDGETRYAPEFQGKATITADTSSNTAYLQLSTLTSEDTAVYYCARYYSSYVPFVYWGQGTLVTASA VL: DVVMTQTPLSLSVSLGDQASISCRSSQSLIYSNRHTYLHWYLQKPGQSPKLLIFQVSNRFSGVPDRFSGSGSGTDFTLKINRVEAEDLGVYFCSQSTHIPFTFGSGTKLEIKR | 0.623 | 0.000268 | 430000
Mutation 1-3 (antibody, V domains shown, built as for Mutation 1) VH: EVQLQQSGAELVKPGASVKLSCTASGFNIKDYYMHWMKQRTEQGLDWIGRIDPEDGETKYAPEFQGKATITADTSSNTAYLQLSTLTSEDTAVYYCARYYSSYLPFVYWGQGTLVTASA VL: DVVMTQTPLSLSVSLGDQASISCRSSQSLLYSNRHTYLHWYLQKPGQSPKLLIFQLSNRFSGVPDRFSGSGSGTDFTLKINRVEAEDLGVYFCSQSTHIPYTFGSGTKLEIKR | 0.676 | 0.000122 | 181000
Mutation 1-5 (antibody, V domains shown, built as for Mutation 1) VH: EVQLQQSGAELVKPGASVKLSCTASGFNLKDYYMHWMKQRTEQGLDWIGRIDPEDGETRYAPEFQGKATITADTSSNTAYLQLSTLTSEDTAVYYCARYYSSYIPFVYWGQGTLVTASA VL: DVVMTQTPLSLSVSLGDQASISCRSSQSIIYSNRHTYLHWYLQKPGQSPKLLIFQISNRFSGVPDRFSGSGSGTDFTLKINRVEAEDLGVYFCSQSTHIPFTFGSGTKLEIKR | 0.623 | 0.0001 | 161000
Mutation 1-7 (antibody, V domains shown, built as for Mutation 1) VH: EVQLQQSGAELVKPGASVKLSCTASGFNIKDYYMHWMKQRTEQGLDWIGRIDPEDAETRYAPEFQGKATITADTSSNTAYLQLSTLTSEDTAVYYCARYYSSYIPFVYWGQGTLVTASA VL: DVVMTQTPLSLSVSLGDQASISCRSSQSLIYSNRHTYLHWYLQKPGQSPKLLIFQISNRFSGVPDRFSGSGSGTDFTLKINRVEAEDLGVYFCSQSTHLPYTFGSGTKLEIKR | 0.804 | 0.00056 | 697000
Mutation 1-8 (antibody, V domains shown, built as for Mutation 1) VH: EVQLQQSGAELVKPGASVKLSCTASGFNLKDYFMHWMKQRTEQGLDWIGRIDPEDGETRYAPEFQGKATITADTSSNTAYLQLSTLTSEDTAVYYCARYYSSYLPFVYWGQGTLVTASA VL: DVVMTQTPLSLSVSLGDQASISCRSSQSLIYSNRHTYLHWYLQKPGQSPKLLIFQLSNRFSGVPDRFSGSGSGTDFTLKINRVEAEDLGVYFCSQSTHLPFTFGSGTKLEIKR | 0.303 | 2.58e-05 | 85100
Mutation 1-9 (antibody, V domains shown, built as for Mutation 1) VH: EVQLQQSGAELVKPGASVKLSCTASGFNLKDYYMHWMKQRTEQGLDWIGRIDPEDGETKYAPEFQGKATITADTSSNTAYLQLSTLTSEDTAVYYCARYYSSYIPFVYWGQGTLVTASA VL: DVVMTQTPLSLSVSLGDQASISCRSSQSLLYSNRHTYLHWYLQKPGQSPKLLIFQISNRFSGVPDRFSGSGSGTDFTLKINRVEAEDLGVYFCSQSTHIPYTFGSGTKLEIKR | 0.866 | 9.18e-05 | 106000
Mutation 1-10 (antibody, V domains shown, built as for Mutation 1) VH: EVQLQQSGAELVKPGASVKLSCTASGFNIKDYFMHWMKQRTEQGLDWIGRIDPEDAETRYAPEFQGKATITADTSSNTAYLQLSTLTSEDTAVYYCARYYSSYLPFVYWGQGTLVTASA VL: DVVMTQTPLSLSVSLGDQASISCRSSQSIIYSNRHTYLHWYLQKPGQSPKLLIFQLSNRFSGVPDRFSGSGSGTDFTLKINRVEAEDLGVYFCSQSTHLPYTFGSGTKLEIKR | 0.922 | 0.000413 | 448000
Mutation 1-12 (antibody, V domains shown, built as for Mutation 1) VH: EVQLQQSGAELVKPGASVKLSCTASGFNLKDYFMHWMKQRTEQGLDWIGRIDPEDGETKYAPEFQGKATITADTSSNTAYLQLSTLTSEDTAVYYCARYYSSYLPFVYWGQGTLVTASA VL: DVVMTQTPLSLSVSLGDQASISCRSSQSILYSNRHTYLHWYLQKPGQSPKLLIFQLSNRFSGVPDRFSGSGSGTDFTLKINRVEAEDLGVYFCSQSTHLPYTFGSGTKLEIKR | 0.834 | 0.000258 | 309000
Mutation 1-13 (antibody, V domains shown, built as for Mutation 1) VH: EVQLQQSGAELVKPGASVKLSCTASGFNLKDYYMHWMKQRTEQGLDWIGRIDPEDAETRYAPEFQGKATITADTSSNTAYLQLSTLTSEDTAVYYCARYYSSYVPFVYWGQGTLVTASA VL: DVVMTQTPLSLSVSLGDQASISCRSSQSLIYSNRHTYLHWYLQKPGQSPKLLIFQVSNRFSGVPDRFSGSGSGTDFTLKINRVEAEDLGVYFCSQSTHLPFTFGSGTKLEIKR | 0.806 | 0.000251 | 311000
Mutation 1-15 (antibody, V domains shown, built as for Mutation 1) VH: EVQLQQSGAELVKPGASVKLSCTASGFNIKDYYMHWMKQRTEQGLDWIGRIDPEDGETRYAPEFQGKATITADTSSNTAYLQLSTLTSEDTAVYYCARYYSSYVPFVYWGQGTLVTASA VL: DVVMTQTPLSLSVSLGDQASISCRSSQSIIYSNRHTYLHWYLQKPGQSPKLLIFQVSNRFSGVPDRFSGSGSGTDFTLKINRVEAEDLGVYFCSQSTHIPYTFGSGTKLEIKR | 0.917 | 0.000245 | 267000
Mutation 1-16 (antibody, V domains shown, built as for Mutation 1) VH: EVQLQQSGAELVKPGASVKLSCTASGFNLKDYFMHWMKQRTEQGLDWIGRIDPEDAETRYAPEFQGKATITADTSSNTAYLQLSTLTSEDTAVYYCARYYSSYIPFVYWGQGTLVTASA VL: DVVMTQTPLSLSVSLGDQASISCRSSQSLLYSNRHTYLHWYLQKPGQSPKLLIFQISNRFSGVPDRFSGSGSGTDFTLKINRVEAEDLGVYFCSQSTHLPYTFGSGTKLEIKR | 0.662 | 0.000101 | 152000
Mutation 1-17 (antibody, V domains shown, built as for Mutation 1) VH: EVQLQQSGAELVKPGASVKLSCTASGFNLKDYYMHWMKQRTEQGLDWIGRIDPEDAETRYAPEFQGKATITADTSSNTAYLQLSTLTSEDTAVYYCARYYSSYLPFVYWGQGTLVTASA VL: DVVMTQTPLSLSVSLGDQASISCRSSQSIIYSNRHTYLHWYLQKPGQSPKLLIFQLSNRFSGVPDRFSGSGSGTDFTLKINRVEAEDLGVYFCSQSTHIPYTFGSGTKLEIKR | 0.722 | 0.000565 | 782000
Mutation 1-19 (antibody, V domains shown, built as for Mutation 1) VH: EVQLQQSGAELVKPGASVKLSCTASGFNIKDYYMHWMKQRTEQGLDWIGRIDPEDGETRYAPEFQGKATITADTSSNTAYLQLSTLTSEDTAVYYCARYYSSYLPFVYWGQGTLVTASA VL: DVVMTQTPLSLSVSLGDQASISCRSSQSLIYSNRHTYLHWYLQKPGQSPKLLIFQLSNRFSGVPDRFSGSGSGTDFTLKINRVEAEDLGVYFCSQSTHIPFTFGSGTKLEIKR | 0.487 | 0.000191 | 393000
Mutation 1-20 (antibody, V domains shown, built as for Mutation 1) VH: EVQLQQSGAELVKPGASVKLSCTASGFNLKDYFMHWMKQRTEQGLDWIGRIDPEDGETKYAPEFQGKATITADTSSNTAYLQLSTLTSEDTAVYYCARYYSSYVPFVYWGQGTLVTASA VL: DVVMTQTPLSLSVSLGDQASISCRSSQSLIYSNRHTYLHWYLQKPGQSPKLLIFQVSNRFSGVPDRFSGSGSGTDFTLKINRVEAEDLGVYFCSQSTHIPFTFGSGTKLEIKR | 0.945 | 0.000158 | 167000
Mutation 1-21 (antibody, V domains shown, built as for Mutation 1) VH: EVQLQQSGAELVKPGASVKLSCTASGFNLKDYYMHWMKQRTEQGLDWIGRIDPEDAETKYAPEFQGKATITADTSSNTAYLQLSTLTSEDTAVYYCARYYSSYLPFVYWGQGTLVTASA VL: DVVMTQTPLSLSVSLGDQASISCRSSQSLLYSNRHTYLHWYLQKPGQSPKLLIFQLSNRFSGVPDRFSGSGSGTDFTLKINRVEAEDLGVYFCSQSTHLPFTFGSGTKLEIKR | 0.676 | 0.000477 | 705000
Mutation 1-22 (antibody, V domains shown, built as for Mutation 1) VH: EVQLQQSGAELVKPGASVKLSCTASGFNIKDYFMHWMKQRTEQGLDWIGRIDPEDGETRYAPEFQGKATITADTSSNTAYLQLSTLTSEDTAVYYCARYYSSYVPFVYWGQGTLVTASA VL: DVVMTQTPLSLSVSLGDQASISCRSSQSIIYSNRHTYLHWYLQKPGQSPKLLIFQVSNRFSGVPDRFSGSGSGTDFTLKINRVEAEDLGVYFCSQSTHLPYTFGSGTKLEIKR | 0.725 | 0.000215 | 297000
Mutation 1-25 (antibody, V domains shown, built as for Mutation 1) VH: EVQLQQSGAELVKPGASVKLSCTASGFNLKDYYMHWMKQRTEQGLDWIGRIDPEDGETRYAPEFQGKATITADTSSNTAYLQLSTLTSEDTAVYYCARYYSSYIPFVYWGQGTLVTASA VL: DVVMTQTPLSLSVSLGDQASISCRSSQSIIYSNRHTYLHWYLQKPGQSPKLLIFQISNRFSGVPDRFSGSGSGTDFTLKINRVEAEDLGVYFCSQSTHLPYTFGSGTKLEIKR | 0.97 | 0.000659 | 679000
Mutation 1-26 (antibody, V domains shown, built as for Mutation 1) VH: EVQLQQSGAELVKPGASVKLSCTASGFNIKDYFMHWMKQRTEQGLDWIGRIDPEDGETKYAPEFQGKATITADTSSNTAYLQLSTLTSEDTAVYYCARYYSSYLPFVYWGQGTLVTASA VL: DVVMTQTPLSLSVSLGDQASISCRSSQSILYSNRHTYLHWYLQKPGQSPKLLIFQLSNRFSGVPDRFSGSGSGTDFTLKINRVEAEDLGVYFCSQSTHLPFTFGSGTKLEIKR | 0.692 | 0.00023 | 333000
